Data reported in PMC3522304.

Target: hematopoietic form of CD44 (CD44-H) fused to CFP or YFP (human) (UniProt P16070)
Assay: FRET or BRET

Substance: hematopoietic form of CD44 (CD44-H) fused to CFP or YFP (from UniProt P16070-12 21-361) (receptor)
- FRET efficiency (E) with nHA followed by oHA: -15.3%
